Measurements: PMC7074997, “Biodiesel and flavor compound production using a novel promiscuous cold-adapted SGNH-type lipase (HaSGNH1) from the psychrophilic bacterium Halocynthiibacter arcticus” (Biotechnology for Biofuels, 2020)
Residue numbers refer to the chain shown, from its start. In names and notes the source's numbering stands.

B1: HaSGNH1 (Falsihalocynthiibacter arcticus) (protein)
chain: MSARVQAETVVIAALGDSLTQGYGLPQEDGLVAQLQGWLDENNHDIRLINAGVSGDTTAGGRSRIEWTLTPDVDAVIVELGGNDMMRGIAPSDSRKNLTEILEILQSRDLPVLLVGLPSANNFGPEFKAEFDDMFPALSTDFETLLYPDFFTSFRTKLNDTSALTTYMQDDAIHPNAKGVAAIVEDFGPLVVELAQQTQE
notes: ORF cloned from genomic DNA (primer starts ATG AGT GCT CGC GTT: MSARV), pET-21a, N-terminal His6 tag, E. coli BL21(DE3)
B2: HaSGNH1 (Falsihalocynthiibacter arcticus; M86E) (protein)
chain: B1 chain with M86E
notes: as for B1
B3: HaSGNH1 (Falsihalocynthiibacter arcticus; M86R) (protein)
chain: B1 chain with M86R
notes: as for B1
B4: HaSGNH1 (Falsihalocynthiibacter arcticus; R87L) (protein)
chain: B1 chain with R87L
notes: as for B1

Legend:
Test in all cases: purified protein
Assay type in all cases: biochemical, Falsihalocynthiibacter arcticus
Settings in all cases: free enzyme, 20 mM Tris-HCl pH 8.0, 25 °C (standard assay)
purified protein [1] = substrate: CCCC(=O)Oc1ccc([N+](=O)[O-])cc1
purified protein [2] = substrate: CC(=O)Oc1ccc([N+](=O)[O-])cc1
purified protein [3] = substrate: CCCCCC(=O)Oc1ccc([N+](=O)[O-])cc1

Protein | Km (purified protein [1]) | Vmax (purified protein [1]) | kcat (purified protein [1]) | kcat/Km (purified protein [1]) | Km (purified protein [2]) | Vmax (purified protein [2]) | kcat (purified protein [2]) | kcat/Km (purified protein [2]) | Km (purified protein [3]) | Vmax (purified protein [3]) | kcat (purified protein [3]) | kcat/Km (purified protein [3])
B1 | 0.80 (± 0.23) mM | 60 µM/min | 17.1 ± 1.83 s⁻¹ | 21300 M⁻¹ s⁻¹ | 0.93 (± 0.15) mM | 29.4 µM/min | 8.38 ± 0.53 s⁻¹ | 8900 M⁻¹ s⁻¹ | 0.99 (± 0.20) mM | 57.6 µM/min | 16.5 ± 1.45 s⁻¹ | 16700 M⁻¹ s⁻¹
B2 | 1.06 (± 0.23) mM | 36.6 µM/min | 4 ± 0.39 s⁻¹ | 3800 M⁻¹ s⁻¹ | – | – | – | – | – | – | – | –
B3 | 1.26 (± 0.17) mM | 46.8 µM/min | 5.1 ± 0.35 s⁻¹ | 4200 M⁻¹ s⁻¹ | – | – | – | – | – | – | – | –
B4 | 0.68 (± 0.10) mM | 69 µM/min | 15 ± 0.84 s⁻¹ | 22200 M⁻¹ s⁻¹ | – | – | – | – | – | – | – | –
